# Experiments:
# [1] = target: anti-CD19 CAR (clone FMC63), second-generation, C-terminal meGFP (human) (UniProt P01732); test: cell-based or functional assay
# [2] = target: anti-CD19 CAR (clone FMC63), second-generation, C-terminal meGFP (human) (UniProt P01732); test: flow cytometry staining titration, dose-response fit
# [3] = target: anti-CD19 CAR (clone FMC63), second-generation, C-terminal meGFP (human) (UniProt P01732); test: flow cytometry specificity staining, matched CAR cells
# [4] = target: anti-CD19 CAR (clone FMC63), second-generation, C-terminal meGFP (human) (UniProt P01732); test: flow cytometry staining titration, CAR-transduced Jurkat cells
# [5] = target: anti-CD19 CAR (clone FMC63), second-generation, C-terminal meGFP (human) (UniProt P01732); test: flow cytometry staining titration, αCD19-CAR-transduced Jurkat cells
# [6] = target: anti-CD19 CAR (clone FMC63), second-generation, C-terminal meGFP (human) (UniProt P01732); test: flow cytometry staining titration, anti-CD19 CAR-transduced Jurkat cells
# [7] = target: anti-CD19 CAR (clone FMC63), second-generation, C-terminal meGFP (human) (UniProt P01732); test: magnetic selection with APC-labeled multimer and anti-APC magnetic particles, 'Low Clone'
# [8] = target: anti-CD19 CAR (clone FMC63), second-generation, C-terminal meGFP (human) (UniProt P01732); test: magnetic selection with APC-labeled multimer and anti-APC magnetic particles, 'Mid Clone'
# [9] = target: anti-CD19 CAR (clone FMC63), second-generation, C-terminal meGFP (human) (UniProt P01732); test: flow cytometry spike-in assay, 'Low Clone' and 'Mid Clone' anti-CD19 CAR-meGFP cells among mCherry non-CAR cells
# [10] = target: anti-CD19 CAR (clone FMC63), second-generation, C-terminal meGFP (human) (UniProt P01732); test: flow cytometry spike-in assay, 'Mid Clone' at 10%
Substance,CAR-T cells as percent of total cell population (49% without multimer) [1],CD69+CD25+ cells in CD4+ CAR-T cell sub-population (17% without multimer) [1],CD69+CD25+ cells in CD8+ CAR-T cell sub-population (5% without multimer) [1],PD-1+ CAR-T cells in CD4+ CAR-T cell sub-population (25% without multimer) [1],PD-1+ CAR-T cells in CD8+ CAR-T cell sub-population (2% without multimer) [1],fold staining efficiency (1/EC50) against anti FMC63 antibody [2],percent of CAR-expressing cells detected [3],percent of target cells detected at the maximum concentration [4],percent of CD19 CAR-expressing cells detected at saturated concentrations [5],efficiency of detection against antigen-monomer [6],percent of CAR+ cells retained in the column [7],percent of CAR+ cells retained in the column [8],sensitivity [9],percent of cells detected [10]
CD19 antigen-dodecamer (from UniProt P22629 37-163),70%,28%,38%,25%,6%,40 fold,> 90%,> 92%,90%,25 % higher,35%,55%,> 90%,
CD19 antigen-streptavidin tetramer (from UniProt P22629 37-163),61%,26%,28%,26%,6%,8 fold,> 90%,> 92%,93%,25 % higher,35%,55%,> 90%,
"Protein L (Thermo Fisher Scientific, 29997)",,,,,,,,,,,,,,90%

# — US20240361328A1
